This is an account of results in publication PMC10333360, “Establishing mammalian GLUT kinetics and lipid composition influences in a reconstituted-liposome system” (Nature Communications, 2023).

Substrate in data set [1]: OC[C@H]1OC(O)[C@H](O)[C@@H](O)[C@@H]1O
The experiment in a line: zero-trans transport kinetics in proteoliposomes (KM). The data set is classed as biochemical, Homo sapiens.

Substrate in data set [2]: OC[C@H]1OC(O)[C@H](O)[C@@H](O)[C@@H]1O
The experiment in a line: purified protein.

B1: hGLUT4 (Homo sapiens) (protein)
chain: MPSGFQQIGSEDGEPPQQRVTGTLVLAVFSAVLGSLQFGYNIGVINAPQKVIEQSYNETWLGRQGPEGPSSIPPGTLTTLWALSVAIFSVGGMISSFLIGIISQWLGRKRAMLVNNVLAVLGGSLMGLANAAASYEMLILGRFLIGAYSGLTSGLVPMYVGEIAPTHLRGALGTLNQLAIVIGILIAQVLGLESLLGTASLWPLLLGLTVLPALLQLVLLPFCPESPRYLYIIQNLEGPARKSLKRLTGWADVSGVLAELKDEKRKLERERPLSLLQLLGSRTHRQPLIIAVVLQLSQQLSGINAVFYYSTSIFETAGVGQPAYATIGAGVVNTVFTLVSVLLVERAGRRTLHLLGLAGMCGCAILMTVALLLLERVPAMSYVSIVAIFGFVAFFEIGPGPIPWFIVAELFSQGPRPAAMAVAGFSNWTSNFIIGMGFQYVAEAMGPYVFLLFAVLLLGFFIFTFLRVPETRGRTFDQISAAFHRTPSLLEQEVKPSTELEYLGPDEND
With B1, in data set [1], the Km – broadly, the concentration of substrate that gives half-maximal velocity – was found to be 8200 µM.

B2: GLUT1 (Homo sapiens) (protein)
chain: MEPSSKKLTGRLMLAVGGAVLGSLQFGYNTGVINAPQKVIEEFYNQTWVHRYGESILPTTLTTLWSLSVAIFSVGGMIGSFSVGLFVNRFGRRNSMLMMNLLAFVSAVLMGFSKLGKSFEMLILGRFIIGVYCGLTTGFVPMYVGEVSPTALRGALGTLHQLGIVVGILIAQVFGLDSIMGNKDLWPLLLSIIFIPALLQCIVLPFCPESPRFLLINRNEENRAKSVLKKLRGTADVTHDLQEMKEESRQMMREKKVTILELFRSPAYRQPILIAVVLQLSQQLSGINAVFYYSTSIFEKAGVQQPVYATIGSGIVNTAFTVVSLFVVERAGRRTLHLIGLAGMAGCAILMTIALALLEQLPWMSYLSIVAIFGFVAFFEVGPGPIPWFIVAELFSQGPRPAAIAVAGFSNWTSNFIVGMCFQYVEQLCGPYVFIIFTVLLVLFFIFTYFKVPETKGRTFDEIASGFRQGGASQSDKTPEELFHPLGADSQV
On to B2, for which the Km in data set [2] was found to be 2000 µM.

B3: hGLUT3 (Homo sapiens) (protein)
chain: MGTQKVTPALIFAITVATIGSFQFGYNTGVINAPEKIIKEFINKTLTDKGNAPPSEVLLTSLWSLSVAIFSVGGMIGSFSVGLFVNRFGRRNSMLIVNLLAVTGGCFMGLCKVAKSVEMLILGRLVIGLFCGLCTGFVPMYIGEISPTALRGAFGTLNQLGIVVGILVAQIFGLEFILGSEELWPLLLGFTILPAILQSAALPFCPESPRFLLINRKEEENAKQILQRLWGTQDVSQDIQEMKDESARMSQEKQVTVLELFRVSSYRQPIIISIVLQLSQQLSGINAVFYYSTGIFKDAGVQEPIYATIGAGVVNTIFTVVSLFLVERAGRRTLHMIGLGGMAFCSTLMTVSLLLKDNYNGMSFVCIGAILVFVAFFEIGPGPIPWFIVAELFSQGPRPAAMAVAGCSNWTSNFLVGLLFPSAAHYLGAYVFIIFTGFLITFLAFTFFKVPETRGRTFEDITRAFEGQAHGADRSGKDGVMEMNSIEPAKETTTNV
As to B3, the Michaelis-Menten constant (Km) in data set [2] is 1400 µM.
